Substitutions are numbered along the chain they refer to. Values belong to the binder of their own block, whether it stands above or below them.
Legend:
[1] = target: T1, HA-1 (HMHA1, also known as ARHGAP45; R139H polymorphism, genotype RS_1801284 A/G or A/A) peptide on … (human); experiment: multimer staining
T1 peptide: VLHDDLLEA

[2] = target: T2, CCDC114 peptide on HLA-A*02:01 (human); experiment: activation reporter or marker
T2 peptide: SMIDDLLGV

[3] = target: T1, HA-1 (HMHA1, also known as ARHGAP45; …); experiment: killing

binding result [1]: recognises
B1: HA1-10-104 (TCR, V domains shown)
Valpha: AQSVTQPDIHITVSEGASLELRCNYSYGATPYLFWYVQSPGQGLQLLLKYFSGDTLVQGIKGFEAEFKRSQSSFNLRKPSVHWSDAAEYFCAVANAGGTSYGKLTFGQGTILTVHP
Vbeta: NAGVTQTPKFRVLKTGQSMTLLCAQDMNHEYMYWYRQDPGMGLRLIHYSVGEGTTAKGEVPDGYNVSRLKKQNFLLGLESAAPSQTSVYFCASGRSGTKFFGPGTRLTVL

binding result [1]: recognises | binding result [2]: no recognition
B2: HA1-TSC-100 (TCR, V domains shown)
Valpha: KQEVTQIPAALSVPEGENLVLNCSFTDSAIYNLQWFRQDPGKGLTSLLLIQSSQREQTSGRLNASLDKSSGRSTLYIAASQPGDSATYLCAVRGGTSGTYKYIFGTGTRLKVLA
Vbeta: DTGVSQDPRHKITKRGQNVTFRCDPISEHNRLYWYRQTLGQGPEFLTYFQNEAQLEKSRLLSDRFSAERPKGSFSTLEIQRTEQGDSAMYLCASSRTAGDTQYFGPGTRLTVL

binding result [1]: recognises
B3: HA1-9-105 (TCR, V domains shown)
Valpha: GENVEQHPSTLSVQEGDSAVIKCTYSDSASNYFPWYKQELGKRPQLIIDIRSNVGEKKDQRIAVTLNKTAKHFSLHITETQPEDSAVYFCAVGQNFVFGPGTRLSVLP
Vbeta: B2 Vbeta with R96P, A98T, G99I, D100N, T101E, Q102A, Y103F, P106Q, L113V

binding result [1]: recognises
B4: HA1-9-46 (TCR, V domains shown)
Valpha: GENVEQHPSTLSVQEGDSAVIKCTYSDSASNYFPWYKQELGKRPQLIIDIRSNVGEKKDQRIAVTLNKTAKHFSLHITETQPEDSAVYFCAASIMRFGAGTRLTVKP
Vbeta: B2 Vbeta with D7N, R96L, T97S, A98V, G99V, T101E, Y103F

binding result [1]: recognises
B5: HA1-10-93 (TCR, V domains shown)
Valpha: B4 Valpha with A91P, A92I, S93R, I94Q, M95F, R96Y, A99T, R102S, K106I
Vbeta: B2 Vbeta with R96L, T97V, A98V, G99V

binding result [1]: recognises
B6: HA1-10-26 (TCR, V domains shown)
Valpha: GENVEQHPSTLSVQEGDSAVIKCTYSDSASNYFPWYKQELGKRPQLIIDIRSNVGEKKDQRIAVTLNKTAKHFSLHITETQPEDSAVYFCAASGLGSGAGSYQLTFGKGTKLSVIP
Vbeta: B2 Vbeta with R96L, T97L, D100E, T101K, Q102L, Y103F, P106S, R109Q, T111S

binding result [2]: recognises
B7: HA1-Fred Hutch (TCR, V domains shown)
Valpha: KQEVTQIPAALSVPEGENLVLNCSFTDSAIYNLQWFRQDPGKGLTSLLLIQSSQREQTSGRLNASLDKSSGRSTLYIAASQPGDSATYLCAVIGLGGTYKYIFGTGTRLKVLA
Vbeta: B2 Vbeta with R96L, T97V, A98K, D100E, T101K, Q102L, Y103F, P106S, R109Q, T111S
binding result [3]: recognises

binding result [1]: recognises
B8: HA1-2-23 (TCR, V domains shown)
Valpha: B2 Valpha with G94P, G95T
Vbeta: B2 Vbeta with S95I, R96L, T97V, A98G, D100T, T101E, Q102A, Y103F, P106Q, L113V

binding result [1]: recognises
B9: HA1-2-21 (TCR, V domains shown)
Valpha: GQQVMQIPQYQHVQEGEDFTTYCNSSTTLSNIQWYKQRPGGHPVFLIQLVKSGEVKKQKRLTFQFGEAKKNSSLHITATQTTDVGTYFCAGPSGNTPLVFGKGTRLSVIA
Vbeta: B2 Vbeta with R96L, T97L, A98T, G99T, D100N, T101E, Y103F

binding result [1]: recognises
B10: HA1-10-34 (TCR, V domains shown)
Valpha: GENVEQHPSTLSVQEGDSAVIKCTYSDSASNYFPWYKQELGKRPQLIIDIRSNVGEKKDQRIAVTLNKTAKHFSLHITETQPEDSAVYFCAARGPGTYKYIFGTGTRLKVLA
Vbeta: DTGVSQDPRHKITKRGQNVTFRCDPISEHNRLYWYRQTLGQGPEFLTYFQNEAQLEKSRLLSDRFSAERPKGSFSTLEIQRTEQGDSAMYLCASVAGTVYNEQFFGPGTRLTVL

binding result [1]: recognises
B11: HA1-6-2 (TCR, V domains shown)
Valpha: AQTVTQSQPEMSVQEAETVTLSCTYDTSESNYYLFWYKQPPSRQMILVIRQEAYKQQNATENRFSVNFQKAAKSFSLKISDSQLGDTAMYFCALYSGAGSYQLTFGKGTKLSVIP
Vbeta: B10 Vbeta with V95F, A96E, G97L, T98A, V99G, Y100G, N101Y

binding result [1]: recognises
B12: HA1-1-12 (TCR, V domains shown)
Valpha: EDQVTQSPEALRLQEGESSSLNCSYTVSGLRGLFWYRQDPGKGPEFLFTLYSAGEEKEKERLKATLTKKESFLHITAPKPEDSATYLCAVHLNAGGTSYGKLTFGQGTILTVHP
Vbeta: DAGVTQSPTHLIKTRGQHVTLRCSPISGHKSVSWYQQVLGQGPQFIFQYYEKEERGRGNFPDRFSARQFPNYSSELNVNALLLGDSALYLCASSFDRGTNGYTFGSGTRLTVV

Reference: patent publication US20230398217A1 (published 2023)
